{
  "source": "paper PMC12865202",
  "about": "(2026)",
  "biological_target": "Chicken CapZ (full length α/β) (chicken, UniProt P13127 1-286; P14315 1-277)",
  "assay": "ITC",
  "data": [
    {"binder": "SKREETKLTHFVRERAQGPRGRRLPAHLQAKIKRVSLDKPH", "note": "[RavB^108-148 synthetic peptide]", "values": [
      {"measurement": "Kd", "value": 170, "unit": "nM"}
    ]}
  ]
}
